Target: T1, human TRβ1ΔAB (TR DBD-LBD), thyroid hormone receptor β1 residues 102-461 (human, UniProt P10828-1 102-461)
T1 construct: Holo form (T3/TR) made by adding T3 in 3 times molar excess; also called TR DL; TRβ1 DL
T1 sequence (looked up): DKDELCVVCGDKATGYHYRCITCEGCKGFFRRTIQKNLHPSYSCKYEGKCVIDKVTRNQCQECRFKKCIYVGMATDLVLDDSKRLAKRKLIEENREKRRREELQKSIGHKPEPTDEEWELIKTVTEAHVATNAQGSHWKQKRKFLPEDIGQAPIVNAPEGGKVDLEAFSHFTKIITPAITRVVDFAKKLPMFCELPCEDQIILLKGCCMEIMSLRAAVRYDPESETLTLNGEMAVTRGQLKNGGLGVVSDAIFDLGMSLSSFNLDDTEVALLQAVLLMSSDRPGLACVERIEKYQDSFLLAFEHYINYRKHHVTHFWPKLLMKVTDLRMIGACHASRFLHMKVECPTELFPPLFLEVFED
Assay: fluorescence polarisation; fluorescence anisotropy; 10nM fluorescein-labeled GATA2-Zf titrated with unlabeled, unliganded TR DBD-LBD or TR DBD, 1nM to 10.000nM; 10°C, 50mM NaCl, 20mM Hepes pH8.0, 3mM dithiothreitol, 5% glycerol
Conditions: both partners purified

Kd: 1170 nM
B1: fluorescein-labelled zinc finger region of GATA2 (GATA2-Zf), residues 291-412 (domain or fragment)
chain: not shown
modifications: fluorescein (fluorescein-isothiocyanate, three times molar excess; site not stated)
notes: GATA2, zinc finger region, residues 291-412; removal of the His tag is surmised from that; Two vectors are named (pET31a, pET28a(+)); also called fluorophore-labelled GATA2-Zf; fluorescein-labeled GATA2-Zf

From PMC2935386, “Dissecting the Relation between a Nuclear Receptor and GATA: Binding Affinity Studies of Thyroid Hormone Receptor and GATA2 on TSHβ Promoter” (PLoS ONE, 2010)
